This is an account of results in paper PMC4513857, “PRC2 regulates RNA polymerase III transcribed non-translated RNA gene transcription through EZH2 and SUZ12 interaction with TFIIIC complex” (Nucleic Acids Research, 2015).

This assay has as its target T1, GST-EZH2 fragment A, N-terminal region (Domain I + Domain II), aa 1-522 (UniProt Q15910 1-522).
T1 construct: Cloned in pGEX-4T-1; also called fragment A of EZH2; source: E. coli BL21, purified (Glutathione Sepharose 4B)
T1 sequence (looked up): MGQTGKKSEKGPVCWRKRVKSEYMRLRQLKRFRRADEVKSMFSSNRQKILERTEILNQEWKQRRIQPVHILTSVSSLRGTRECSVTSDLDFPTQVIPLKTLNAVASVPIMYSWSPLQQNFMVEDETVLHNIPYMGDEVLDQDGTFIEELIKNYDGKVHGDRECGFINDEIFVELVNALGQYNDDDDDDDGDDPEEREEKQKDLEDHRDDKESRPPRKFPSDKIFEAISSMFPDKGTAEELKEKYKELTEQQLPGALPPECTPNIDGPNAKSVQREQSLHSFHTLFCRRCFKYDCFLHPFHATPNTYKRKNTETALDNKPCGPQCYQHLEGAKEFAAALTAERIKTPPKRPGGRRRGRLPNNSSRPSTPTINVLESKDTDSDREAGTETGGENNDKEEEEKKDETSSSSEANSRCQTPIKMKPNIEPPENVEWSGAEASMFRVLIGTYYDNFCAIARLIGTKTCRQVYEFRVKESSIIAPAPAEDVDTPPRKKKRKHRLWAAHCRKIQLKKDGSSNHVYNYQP
Kind of assay: pull-down; in vitro pull-down with purified proteins: GST-EZH2 (aa 1-522) and MBP-TFIIIC102 fragment C (aa 524-886). The settings on record: both partners purified.

B1: MBP-TFIIIC102 fragment C (aa 524-886) (domain or fragment, UniProt Q9Y5Q9 524-886, looked up)
chain: QDANAAQQELKLLLHRSTLLFSQGKMYGYVDTLLTMLAMLLKVAMNRAQVCLISSSKSGERHLYLIKVSRDKISDSNDQESANCDAKAIFAVLTSVLTKDDWWNLLLKAIYSLCDLSRFQEAELLVDSSLEYYSFYDDRQKRKELEYFGLSAAILDKNFRKAYNYIRIMVMENVNKPQLWNIFNQVTMHSQDVRHHRFCLRLMLKNPENHALCVLNGHNAFVSGSFKHALGQYVQAFRTHPDEPLYSFCIGLTFIHMASQKYVLRRHALIVQGFSFLNRYLSLRGPCQESFYNLGRGLHQLGLIHLAIHYYQKALELPPLVVEGIELDQLDLRRDIAYNLSLIYQSSGNTGMAQTLLYTYCSI
notes: source: purified
For the molecule B1, the binding result is “binds”.
